Test results as given in patent publication US20150337019A1 (MANUKAMED HOLDINGS LIMITED PARTNERSHIP, published 2015).
The star is where a group is joined. TNBS = trinitrobenzene sulphonic acid, N-terminal block, O=[N+]([O-])c1cc([N+](=O)[O-])c(*)c([N+](=O)[O-])c1; pNA = O=[N+]([O-])c1ccc(N*)cc1

B1: TNBS-FAK-pNA (peptide)
peptide: {TNBS}-Phe-Ala-Lys-pNA
SMILES: C[C@H](NC(=O)[C@H](Cc1ccccc1)Nc1c([N+](=O)[O-])cc([N+](=O)[O-])cc1[N+](=O)[O-])C(=O)N[C@@H](CCCCN)C(=O)Nc1ccc([N+](=O)[O-])cc1

The binders below were run against T1, Cathepsin B from bovine spleen (bovine, UniProt P07688 80-332) (assay: cell-based or functional assay).

In order of falling “Cathepsin B inhibition test, 2 mM peptide” value (“Cathepsin B inhibition test” below):
1. Ac-PFKI-OH [Ac-PFKI-OH]  152
2. Ac-KISIHL-OH [Ac-KISIHL-OH]  149
3. Ac-KISI-OH [Ac-KISI-OH]  133
4. Ac-KISI-OH (also: MGO-modified, site not given here) [MGO-modified Ac-KISI-OH]  92.8
5. Ac-PFKI-OH (also: MGO-modified, site not given here) [MGO-modified Ac-PFKI-OH]  91.5

Target: T1, Cathepsin B from bovine spleen
Assay: cell-based or functional assay
Remark: another data set of the same source

In order of falling “Cathepsin B inhibition test” value:
1. Ac-Leu-Leu-Lys-NH2 [Ac-LLK-NH2]  159
2. Ac-Leu-Leu-Lys-OH (also: MGO-modified, site not given here) [MGO-modified Ac-LLK-OH]  148
3. Ac-Leu-Val-Lys-OH [Ac-LVK-OH]  144
4. Ac-Leu-Leu-Lys-OH [Ac-LLK-OH]  142
5. Ac-Leu-Leu-Lys-NH2 (also: MGO-modified, site not given here) [MGO-modified Ac-LLK-NH2]  137
6. Ac-Leu-Ile-Arg-OH [Ac-LIR-OH]  128
7. Ac-Leu-Val-Lys-NH2 [Ac-LVK-NH2]  92.7
8. Ac-Leu-Val-Lys-OH (also: MGO-modified, site not given here) [MGO-modified Ac-LVK-OH]  80.8
9. Ac-Leu-Val-Lys-NH2 (also: MGO-modified, site not given here) [MGO-modified Ac-LVK-NH2]  80
10. Ac-Leu-Ile-Arg-NH2 (also: MGO-modified, site not given here) [MGO-modified Ac-LIR-NH2]  72.6
11. Ac-Leu-Ile-Arg-NH2 [Ac-LIR-NH2]  65.4
12. Ac-Leu-Ile-Arg-OH (also: MGO-modified, site not given here) [MGO-modified Ac-LIR-OH]  0.07

Target: T1, Cathepsin B from bovine spleen
Assay: cell-based or functional assay
Remark: another data set of the same source

In order of falling “Cathepsin B inhibition test” value:
1. H-Cys-Asp-Arg-OH [H-CDR-OH]  165
2. H-Met-Thr-Arg-OH [H-MTR-OH]  143
3. Ac-Met-Thr-Arg-OH [Ac-MTR-OH]  126
4. {TNBS}-Phe-Ala-Lys-pNA (also: MGO-modified, site not given here) [MGO-modified TNBS-FAK-pNA]  122
5. Ac-Met-Gln-Lys-OH [Ac-MQK-OH]  121
6. Ac-Cys-Asp-Arg-OH [Ac-CDR-OH]  121
7. Ac-Met-Thr-Arg-OH (also: MGO-modified, site not given here) [MGO-modified Ac-MTR-OH]  119
8. H-Met-Thr-Arg-OH (also: MGO-modified, site not given here) [MGO-modified H-MTR-OH]  104
9. H-Met-Gln-Lys-OH (also: MGO-modified, site not given here) [MGO-modified H-MQK-OH]  99.5
10. B1  99.3
11. H-Cys-Asp-Arg-OH (also: MGO-modified, site not given here) [MGO-modified H-CDR-OH]  96
12. Ac-Cys-Asp-Arg-OH (also: MGO-modified, site not given here) [MGO-modified Ac-CDR-OH]  78.5
13. Ac-Met-Gln-Lys-OH (also: MGO-modified, site not given here) [MGO-modified Ac-MQK-OH]  69.2

Target: T1, Cathepsin B from bovine spleen
Assay: cell-based or functional assay
Remark: another data set of the same source

In order of rising “Cathepsin B inhibition test” value:
1. Ac-NQKNNN-OH (also: MGO-modified, site not given here) [MGO-modified Ac-NQKNNN-OH]  87.5
2. Ac-NQKN-OH (also: MGO-modified, site not given here) [MGO-modified Ac-NQKN-OH]  102
3. Ac-NQKNNNQNDN-OH (also: MGO-modified, site not given here) [MGO-modified Ac-NQKNNNQNDN-OH]  123
4. Ac-NQKNNN-OH [Ac-NQKNNN-OH]  147
5. Ac-Lys-Asn-OH [Ac-KN-OH]  150
6. Ac-NQKNNNQN-OH (also: MGO-modified, site not given here) [MGO-modified Ac-NQKNNNQN-OH]  171
7. Ac-NQKNNNQNDN-OH [Ac-NQKNNNQNDN-OH]  254
8. Ac-NQKN-OH [Ac-NQKN-OH]  282
9. Ac-NQKNNNQN-OH [Ac-NQKNNNQN-OH]  290

Target: T1, Cathepsin B from bovine spleen
Assay: cell-based or functional assay
Remark: another data set of the same source

In order of rising “Cathepsin B inhibition test” value:
1. H-QNDNK-OH (also: MGO-modified, site not given here) [MGO-modified H-QNDNK-OH]  68.4
2. H-QNGNR-OH [H-QNGNR-OH]  74.4
3. H-QNGNR-OH (also: MGO-modified, site not given here) [MGO-modified H-QNGNR-OH]  85
4. Ac-QNGNR-OH (also: MGO-modified, site not given here) [MGO-modified Ac-QNGNR-OH]  88.7
5. Ac-QNGNK-OH (also: MGO-modified, site not given here) [MGO-modified Ac-QNGNK-OH]  89.2
6. Ac-QNGNR-OH [Ac-QNGNR-OH]  101
7. H-QNDNK-OH [H-QNDNK-OH]  104
8. H-QNGNK-OH (also: MGO-modified, site not given here) [MGO-modified H-QNGNK-OH]  119
9. Ac-QNDNK-OH (also: MGO-modified, site not given here) [MGO-modified Ac-QNDNK-OH]  122
10. Ac-QNDNR-OH (also: MGO-modified, site not given here) [MGO-modified Ac-QNDNR-OH]  132
11. H-QNDNR-OH [H-QNDNR-OH]  162
12. Ac-QNDNR-OH [Ac-QNDNR-OH]  162
13. Ac-QNDNK-OH [Ac-QNDNK-OH]  167
14. H-QNGNK-OH [H-QNGNK-OH]  171
15. Ac-QNGNK-OH [Ac-QNGNK-OH]  187
